Measurements published in patent US12679878B2, “CRF2 receptor agonists and their use in therapy” (SANOFI, priority 2020, dated 2026).
Starred links: 1 amine or outer side, 2 acyl side, 3 side chain; linkers in the order of their positions; H or OH if unused. Non-standard residues stand in square brackets, D forms with d. Groups on a side chain read outwards from the residue. No end group written: not given here. *: point of attachment. C16 diacid = O=C(O)CCCCCCCCCCCCCCC(=O)*; γGlu = O=C(O)[C@H](CCC(=O)[*:2])N[*:1]; AEEA = NCCOCCOCC(=O)O; Aib = CC(C)(N)C(=O)O

T1: CRF1R receptor (anti-target) (UniProt P34998 24-415, limits assumed)
T1 sequence (looked up): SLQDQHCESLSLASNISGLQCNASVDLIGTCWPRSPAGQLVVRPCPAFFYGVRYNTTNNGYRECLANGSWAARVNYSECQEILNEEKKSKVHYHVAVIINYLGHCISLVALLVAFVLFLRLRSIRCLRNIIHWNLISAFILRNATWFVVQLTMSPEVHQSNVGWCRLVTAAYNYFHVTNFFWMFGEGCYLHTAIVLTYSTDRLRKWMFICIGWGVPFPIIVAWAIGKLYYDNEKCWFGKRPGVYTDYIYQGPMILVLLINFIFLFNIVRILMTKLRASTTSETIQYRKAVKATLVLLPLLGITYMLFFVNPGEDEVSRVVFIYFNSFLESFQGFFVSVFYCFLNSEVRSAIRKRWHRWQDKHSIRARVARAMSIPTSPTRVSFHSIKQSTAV

B1: peptide of SEQ ID NO: 201 (peptide)
peptide: IVLSLD[dV]PIKLK([AEEA-AEEA-γGlu-γGlu-C16 diacid])QILLKQERQKK[Aib]RQKAEKNKQILAQV-NH2
modifications: N-terminus assumed
SMILES: CC[C@H](C)[C@H](N)C(=O)N[C@H](C(=O)N[C@@H](CC(C)C)C(=O)N[C@@H](CO)C(=O)N[C@@H](CC(C)C)C(=O)N[C@@H](CC(=O)O)C(=O)N[C@@H](C(=O)N1CCC[C@H]1C(=O)N[C@H](C(=O)N[C@@H](CCCCN)C(=O)N[C@@H](CC(C)C)C(=O)N[C@@H](CCCCNC(=O)COCCOCCNC(=O)COCCOCCNC(=O)CC[C@H](NC(=O)CC[C@H](NC(=O)CCCCCCCCCCCCCCC(=O)O)C(=O)O)C(=O)O)C(=O)N[C@@H](CCC(N)=O)C(=O)N[C@H](C(=O)N[C@@H](CC(C)C)C(=O)N[C@@H](CC(C)C)C(=O)N[C@@H](CCCCN)C(=O)N[C@@H](CCC(N)=O)C(=O)N[C@@H](CCC(=O)O)C(=O)N[C@@H](CCCNC(=N)N)C(=O)N[C@@H](CCC(N)=O)C(=O)N[C@@H](CCCCN)C(=O)N[C@@H](CCCCN)C(=O)NC(C)(C)C(=O)N[C@@H](CCCNC(=N)N)C(=O)N[C@@H](CCC(N)=O)C(=O)N[C@@H](CCCCN)C(=O)N[C@@H](C)C(=O)N[C@@H](CCC(=O)O)C(=O)N[C@@H](CCCCN)C(=O)N[C@@H](CC(N)=O)C(=O)N[C@@H](CCCCN)C(=O)N[C@@H](CCC(N)=O)C(=O)N[C@H](C(=O)N[C@@H](CC(C)C)C(=O)N[C@@H](C)C(=O)N[C@@H](CCC(N)=O)C(=O)N[C@H](C(N)=O)C(C)C)[C@@H](C)CC)[C@@H](C)CC)[C@@H](C)CC)C(C)C)C(C)C
B2: peptide of SEQ ID NO: 202 (peptide)
peptide: IVLSLD[dV]PIGLK([AEEA-AEEA-γGlu-C16 diacid])QILLKQERQKK[Aib]REQAETNKQILAQV-NH2
modifications: N-terminus assumed
SMILES: CC[C@H](C)[C@H](N)C(=O)N[C@H](C(=O)N[C@@H](CC(C)C)C(=O)N[C@@H](CO)C(=O)N[C@@H](CC(C)C)C(=O)N[C@@H](CC(=O)O)C(=O)N[C@@H](C(=O)N1CCC[C@H]1C(=O)N[C@H](C(=O)NCC(=O)N[C@@H](CC(C)C)C(=O)N[C@@H](CCCCNC(=O)COCCOCCNC(=O)COCCOCCNC(=O)CC[C@H](NC(=O)CCCCCCCCCCCCCCC(=O)O)C(=O)O)C(=O)N[C@@H](CCC(N)=O)C(=O)N[C@H](C(=O)N[C@@H](CC(C)C)C(=O)N[C@@H](CC(C)C)C(=O)N[C@@H](CCCCN)C(=O)N[C@@H](CCC(N)=O)C(=O)N[C@@H](CCC(=O)O)C(=O)N[C@@H](CCCNC(=N)N)C(=O)N[C@@H](CCC(N)=O)C(=O)N[C@@H](CCCCN)C(=O)N[C@@H](CCCCN)C(=O)NC(C)(C)C(=O)N[C@@H](CCCNC(=N)N)C(=O)N[C@@H](CCC(=O)O)C(=O)N[C@@H](CCC(N)=O)C(=O)N[C@@H](C)C(=O)N[C@@H](CCC(=O)O)C(=O)N[C@H](C(=O)N[C@@H](CC(N)=O)C(=O)N[C@@H](CCCCN)C(=O)N[C@@H](CCC(N)=O)C(=O)N[C@H](C(=O)N[C@@H](CC(C)C)C(=O)N[C@@H](C)C(=O)N[C@@H](CCC(N)=O)C(=O)N[C@H](C(N)=O)C(C)C)[C@@H](C)CC)[C@@H](C)O)[C@@H](C)CC)[C@@H](C)CC)C(C)C)C(C)C
B3: peptide of SEQ ID NO: 203 (peptide)
peptide: IVLSLD[dV]PIGLK([AEEA-AEEA-γGlu-γGlu-C16 diacid])QILLKQERQKK[Aib]REQAETNKQILAQV-NH2
modifications: N-terminus assumed
SMILES: CC[C@H](C)[C@H](N)C(=O)N[C@H](C(=O)N[C@@H](CC(C)C)C(=O)N[C@@H](CO)C(=O)N[C@@H](CC(C)C)C(=O)N[C@@H](CC(=O)O)C(=O)N[C@@H](C(=O)N1CCC[C@H]1C(=O)N[C@H](C(=O)NCC(=O)N[C@@H](CC(C)C)C(=O)N[C@@H](CCCCNC(=O)COCCOCCNC(=O)COCCOCCNC(=O)CC[C@H](NC(=O)CC[C@H](NC(=O)CCCCCCCCCCCCCCC(=O)O)C(=O)O)C(=O)O)C(=O)N[C@@H](CCC(N)=O)C(=O)N[C@H](C(=O)N[C@@H](CC(C)C)C(=O)N[C@@H](CC(C)C)C(=O)N[C@@H](CCCCN)C(=O)N[C@@H](CCC(N)=O)C(=O)N[C@@H](CCC(=O)O)C(=O)N[C@@H](CCCNC(=N)N)C(=O)N[C@@H](CCC(N)=O)C(=O)N[C@@H](CCCCN)C(=O)N[C@@H](CCCCN)C(=O)NC(C)(C)C(=O)N[C@@H](CCCNC(=N)N)C(=O)N[C@@H](CCC(=O)O)C(=O)N[C@@H](CCC(N)=O)C(=O)N[C@@H](C)C(=O)N[C@@H](CCC(=O)O)C(=O)N[C@H](C(=O)N[C@@H](CC(N)=O)C(=O)N[C@@H](CCCCN)C(=O)N[C@@H](CCC(N)=O)C(=O)N[C@H](C(=O)N[C@@H](CC(C)C)C(=O)N[C@@H](C)C(=O)N[C@@H](CCC(N)=O)C(=O)N[C@H](C(N)=O)C(C)C)[C@@H](C)CC)[C@@H](C)O)[C@@H](C)CC)[C@@H](C)CC)C(C)C)C(C)C
B4: peptide of SEQ ID NO: 221 (peptide)
peptide: IVLSLD[dV]PTKLK([γGlu-C16 diacid])QKLLKQERQRKEREQAEKNARILARV-NH2
modifications: N-terminus assumed
SMILES: CC[C@H](C)[C@H](N)C(=O)N[C@H](C(=O)N[C@@H](CC(C)C)C(=O)N[C@@H](CO)C(=O)N[C@@H](CC(C)C)C(=O)N[C@@H](CC(=O)O)C(=O)N[C@@H](C(=O)N1CCC[C@H]1C(=O)N[C@H](C(=O)N[C@@H](CCCCN)C(=O)N[C@@H](CC(C)C)C(=O)N[C@@H](CCCCNC(=O)CC[C@H](NC(=O)CCCCCCCCCCCCCCC(=O)O)C(=O)O)C(=O)N[C@@H](CCC(N)=O)C(=O)N[C@@H](CCCCN)C(=O)N[C@@H](CC(C)C)C(=O)N[C@@H](CC(C)C)C(=O)N[C@@H](CCCCN)C(=O)N[C@@H](CCC(N)=O)C(=O)N[C@@H](CCC(=O)O)C(=O)N[C@@H](CCCNC(=N)N)C(=O)N[C@@H](CCC(N)=O)C(=O)N[C@@H](CCCNC(=N)N)C(=O)N[C@@H](CCCCN)C(=O)N[C@@H](CCC(=O)O)C(=O)N[C@@H](CCCNC(=N)N)C(=O)N[C@@H](CCC(=O)O)C(=O)N[C@@H](CCC(N)=O)C(=O)N[C@@H](C)C(=O)N[C@@H](CCC(=O)O)C(=O)N[C@@H](CCCCN)C(=O)N[C@@H](CC(N)=O)C(=O)N[C@@H](C)C(=O)N[C@@H](CCCNC(=N)N)C(=O)N[C@H](C(=O)N[C@@H](CC(C)C)C(=O)N[C@@H](C)C(=O)N[C@@H](CCCNC(=N)N)C(=O)N[C@H](C(N)=O)C(C)C)[C@@H](C)CC)[C@@H](C)O)C(C)C)C(C)C
B5: peptide of SEQ ID NO: 222 (peptide)
peptide: IVLSLD[dV]PTKLK([γGlu-C16 diacid])QKLLKQERQRKEREQAEKNVRILERV-NH2
modifications: N-terminus assumed
SMILES: CC[C@H](C)[C@H](N)C(=O)N[C@H](C(=O)N[C@@H](CC(C)C)C(=O)N[C@@H](CO)C(=O)N[C@@H](CC(C)C)C(=O)N[C@@H](CC(=O)O)C(=O)N[C@@H](C(=O)N1CCC[C@H]1C(=O)N[C@H](C(=O)N[C@@H](CCCCN)C(=O)N[C@@H](CC(C)C)C(=O)N[C@@H](CCCCNC(=O)CC[C@H](NC(=O)CCCCCCCCCCCCCCC(=O)O)C(=O)O)C(=O)N[C@@H](CCC(N)=O)C(=O)N[C@@H](CCCCN)C(=O)N[C@@H](CC(C)C)C(=O)N[C@@H](CC(C)C)C(=O)N[C@@H](CCCCN)C(=O)N[C@@H](CCC(N)=O)C(=O)N[C@@H](CCC(=O)O)C(=O)N[C@@H](CCCNC(=N)N)C(=O)N[C@@H](CCC(N)=O)C(=O)N[C@@H](CCCNC(=N)N)C(=O)N[C@@H](CCCCN)C(=O)N[C@@H](CCC(=O)O)C(=O)N[C@@H](CCCNC(=N)N)C(=O)N[C@@H](CCC(=O)O)C(=O)N[C@@H](CCC(N)=O)C(=O)N[C@@H](C)C(=O)N[C@@H](CCC(=O)O)C(=O)N[C@@H](CCCCN)C(=O)N[C@@H](CC(N)=O)C(=O)N[C@H](C(=O)N[C@@H](CCCNC(=N)N)C(=O)N[C@H](C(=O)N[C@@H](CC(C)C)C(=O)N[C@@H](CCC(=O)O)C(=O)N[C@@H](CCCNC(=N)N)C(=O)N[C@H](C(N)=O)C(C)C)[C@@H](C)CC)C(C)C)[C@@H](C)O)C(C)C)C(C)C

molecular target: T1, CRF1R receptor (anti-target); assay: cell-based or functional assay

Binder | EC50 [nM] 0% HSA (cAMP, HTRF) [nM] | Emax (%) (100% = Sauvagine at 100 nM)
B1 | > 100 | -2.8
B2 | > 100 | 5.4
B3 | > 100 | 4.7
B4 | > 100 | 3.2
B5 | > 100 | 6.2

molecular target: human corticotropin-releasing factor 2α (CRF2α receptor) (human), Q13324; assay: cell-based or functional assay
Sequence (Q13324 20-411): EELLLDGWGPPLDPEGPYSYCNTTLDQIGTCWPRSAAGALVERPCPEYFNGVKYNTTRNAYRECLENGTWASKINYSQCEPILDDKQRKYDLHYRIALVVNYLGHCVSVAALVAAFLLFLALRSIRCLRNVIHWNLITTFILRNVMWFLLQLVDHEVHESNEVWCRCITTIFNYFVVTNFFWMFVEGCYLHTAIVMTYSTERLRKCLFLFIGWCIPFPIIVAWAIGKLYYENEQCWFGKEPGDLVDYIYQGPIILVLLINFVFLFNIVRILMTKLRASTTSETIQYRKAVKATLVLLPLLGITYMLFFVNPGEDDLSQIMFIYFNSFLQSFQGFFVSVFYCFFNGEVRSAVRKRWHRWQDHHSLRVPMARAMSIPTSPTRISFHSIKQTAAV

Binder | EC50 [nM], 0% HSA (cAMP, HTRF) [nM]
B1 | 4.66
B2 | 0.87
B3 | 4.7
B4 | 2.71
B5 | 7.38
